Legend:
[1] = target: T1, Human macrophage mannose receptor 1 (MRC1) (human) (UniProt P22897); assay: competition with Eu-mannosylated-BSA on captured human MRC1, DELFIA
T1 sequence (looked up): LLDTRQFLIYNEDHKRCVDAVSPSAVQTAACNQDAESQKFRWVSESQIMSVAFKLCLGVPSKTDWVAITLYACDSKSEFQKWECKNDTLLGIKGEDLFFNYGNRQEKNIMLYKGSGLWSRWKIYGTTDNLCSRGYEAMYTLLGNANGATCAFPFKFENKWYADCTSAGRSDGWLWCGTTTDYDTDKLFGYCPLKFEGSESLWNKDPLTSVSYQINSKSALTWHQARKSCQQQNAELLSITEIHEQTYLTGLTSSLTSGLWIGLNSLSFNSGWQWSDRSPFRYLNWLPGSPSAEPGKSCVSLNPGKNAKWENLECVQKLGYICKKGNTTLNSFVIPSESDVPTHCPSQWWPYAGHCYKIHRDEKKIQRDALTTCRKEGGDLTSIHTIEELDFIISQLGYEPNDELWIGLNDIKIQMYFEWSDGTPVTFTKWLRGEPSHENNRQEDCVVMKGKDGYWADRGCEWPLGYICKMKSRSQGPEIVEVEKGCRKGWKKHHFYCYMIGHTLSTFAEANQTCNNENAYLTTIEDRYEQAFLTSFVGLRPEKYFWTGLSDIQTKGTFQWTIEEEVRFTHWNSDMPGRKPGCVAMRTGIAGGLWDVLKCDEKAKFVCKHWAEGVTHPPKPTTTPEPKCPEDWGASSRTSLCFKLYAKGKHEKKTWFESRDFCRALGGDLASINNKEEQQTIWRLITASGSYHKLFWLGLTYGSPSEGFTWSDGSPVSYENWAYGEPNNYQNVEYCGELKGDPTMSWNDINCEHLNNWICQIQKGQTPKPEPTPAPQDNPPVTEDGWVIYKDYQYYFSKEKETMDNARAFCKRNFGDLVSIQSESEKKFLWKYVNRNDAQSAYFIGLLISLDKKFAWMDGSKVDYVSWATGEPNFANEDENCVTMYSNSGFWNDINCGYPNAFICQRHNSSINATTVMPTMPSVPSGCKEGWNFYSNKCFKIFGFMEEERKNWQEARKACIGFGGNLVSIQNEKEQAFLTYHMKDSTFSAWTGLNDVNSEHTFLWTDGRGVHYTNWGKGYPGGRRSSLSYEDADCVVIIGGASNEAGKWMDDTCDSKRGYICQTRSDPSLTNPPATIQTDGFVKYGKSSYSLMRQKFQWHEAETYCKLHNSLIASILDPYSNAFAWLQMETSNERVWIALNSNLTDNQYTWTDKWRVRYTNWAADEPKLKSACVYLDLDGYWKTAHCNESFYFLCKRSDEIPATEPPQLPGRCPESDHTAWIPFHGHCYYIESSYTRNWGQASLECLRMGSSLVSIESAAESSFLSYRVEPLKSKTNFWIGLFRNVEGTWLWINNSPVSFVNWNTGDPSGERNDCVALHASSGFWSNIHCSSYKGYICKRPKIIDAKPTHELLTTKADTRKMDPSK

[2] = target: human insulin receptor type B (IR(B)) (human) (UniProt P06213); assay: cell-based or functional assay
UniProt P06213, sequence (P06213 28-1382): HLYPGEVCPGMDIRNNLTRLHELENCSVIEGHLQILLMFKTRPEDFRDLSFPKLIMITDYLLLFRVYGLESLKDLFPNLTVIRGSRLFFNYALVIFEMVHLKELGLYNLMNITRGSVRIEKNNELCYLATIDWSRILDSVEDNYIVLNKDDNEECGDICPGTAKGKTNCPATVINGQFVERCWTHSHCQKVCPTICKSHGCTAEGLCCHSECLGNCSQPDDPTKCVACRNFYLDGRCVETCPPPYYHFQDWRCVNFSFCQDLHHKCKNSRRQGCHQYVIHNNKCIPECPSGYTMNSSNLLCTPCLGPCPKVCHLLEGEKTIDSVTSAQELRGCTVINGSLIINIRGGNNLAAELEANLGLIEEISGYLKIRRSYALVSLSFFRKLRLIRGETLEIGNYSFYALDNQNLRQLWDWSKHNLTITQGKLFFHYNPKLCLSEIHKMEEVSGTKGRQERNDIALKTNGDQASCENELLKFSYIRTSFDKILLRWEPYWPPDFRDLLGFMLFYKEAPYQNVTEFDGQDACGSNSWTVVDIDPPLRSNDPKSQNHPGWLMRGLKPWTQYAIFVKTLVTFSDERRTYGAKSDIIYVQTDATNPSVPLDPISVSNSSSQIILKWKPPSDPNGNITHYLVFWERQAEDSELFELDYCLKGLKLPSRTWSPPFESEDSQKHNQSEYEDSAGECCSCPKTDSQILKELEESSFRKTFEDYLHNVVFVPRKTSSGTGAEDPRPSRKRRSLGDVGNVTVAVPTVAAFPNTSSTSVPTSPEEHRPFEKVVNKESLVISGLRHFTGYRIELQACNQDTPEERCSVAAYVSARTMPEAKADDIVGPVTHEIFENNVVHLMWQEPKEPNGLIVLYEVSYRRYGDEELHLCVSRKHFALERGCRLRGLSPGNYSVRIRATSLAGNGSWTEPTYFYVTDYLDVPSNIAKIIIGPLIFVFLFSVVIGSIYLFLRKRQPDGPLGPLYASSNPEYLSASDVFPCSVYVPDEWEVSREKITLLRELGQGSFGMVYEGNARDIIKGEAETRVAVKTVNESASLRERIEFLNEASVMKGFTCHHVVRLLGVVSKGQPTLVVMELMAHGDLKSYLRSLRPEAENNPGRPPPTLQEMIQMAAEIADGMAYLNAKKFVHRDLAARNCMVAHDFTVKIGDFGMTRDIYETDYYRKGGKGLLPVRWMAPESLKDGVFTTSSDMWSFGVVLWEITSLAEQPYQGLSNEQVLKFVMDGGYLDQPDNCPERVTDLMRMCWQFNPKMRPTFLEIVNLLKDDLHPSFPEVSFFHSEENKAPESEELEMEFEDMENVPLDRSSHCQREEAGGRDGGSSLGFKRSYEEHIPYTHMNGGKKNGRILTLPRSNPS

- IC50 [1]: 82.7 nM
- Human pIR IC50 (nM) [2]: 6.36 nM
Substance: IOC-34 (Lispro) (ligand)

Reference: patent publication US20260021190A1
